Assays:
HUVEC [1] = test: HUVEC (3-D) tube formation assay; format: cell-based; conditions: for angiogenic activity: FIG. 2
Description: (§1) Recombinant human SPARC and genetically engineered variants were expressed and purified using HEK 293 cells maintained in hollow fiber bio-reactors. The angiogenic activity of rhSPARC and its variants was evaluated using a HUVEC tube formation assay and a HUVEC sprout formation bead assay.
(§2) In the HUVEC tube formation assay, rhSPARC was pro-angiogenic at 10 μg/mL and anti-angiogenic at 100 μg/mL. […] Additional rhSPARC variants with deletions and single/double amino acid substitutions tested in these assays included: Q3 deletion (BIO2), an inversion of the putative angiogenic domain (BIOS), a double K>Q substitution in the proposed angiogenic domain (BIO11), the genetic ablation of the putative catephsin K recognition sites (BIO8), and a proteolytic degradation product of rhSPARC. Terminal amino acid analysis indicated the angiogenic activity is localized to SEQ ID NO: 1.

HUVEC [2] = test: HUVEC sprout formation bead assay; format: cell-based
Description: as §1, §2

B1: rhSPARC: Recombinant human SPARC expressed and purified using HEK 293 cells (protein, UniProt P09486 18-303, looked up)
SPARC: APQQEALPDETEVVEETVAEVTEVSVGANPVQVEVGEFDDGAEETEEEVVAENPCQNHHCKHGKVCELDENNTPMCVCQDPTSCPAPIGEFEKVCSNDNKTFDSSCHFFATKCTLEGTKKGHKLHLDYIGPCKYIPPCLDSELTEFPLRMRDWLKNVLVTLYERDEDNNLLTEKQKLRVKKIHENEKRLEAGDHPVELLARDFEKNYNMYIFPVHWQFGQLDQHPIDGYLSHTELAPLRAPLIPMEHCTTRFFETCDLDNDKYIALDEWAGCFGIKQKDIDKDLVI
angiogenic behavior over concentration (HUVEC [1]; HUVEC 3-D tube formation, concentrations up to 100 ug/ml, FIG. 4): increases as the concentration approaches 10 ug/ml and drops off as it approaches 100 ug/ml
angiogenic activity (HUVEC [1]; at 10 μg/mL): pro-angiogenic
angiogenic activity (HUVEC [1]; at 100 μg/mL): anti-angiogenic
blood vessel maturity on addition of the protein (HUVEC [2]): more mature blood vessels well supported by pericytes
